According to US20140212436A1:

How the values were obtained:
[1] = biological target: recombinant human FcγRIIb protein (human) (UniProt P31994); assay: Biacore
FcγRIIaR (human) = FcγRIIaR (human) (UniProt P12318); assay: Biacore
Chain of FcγRIIaR (human) (P12318 34-217 H167R limits assumed): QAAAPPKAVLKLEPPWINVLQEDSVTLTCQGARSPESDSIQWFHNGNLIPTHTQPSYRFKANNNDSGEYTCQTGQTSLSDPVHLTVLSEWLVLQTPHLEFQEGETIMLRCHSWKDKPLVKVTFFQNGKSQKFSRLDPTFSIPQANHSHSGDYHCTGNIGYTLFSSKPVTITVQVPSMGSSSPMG

Chain of recombinant human FcγRIIb protein (human) (P31994 46-217 limits assumed): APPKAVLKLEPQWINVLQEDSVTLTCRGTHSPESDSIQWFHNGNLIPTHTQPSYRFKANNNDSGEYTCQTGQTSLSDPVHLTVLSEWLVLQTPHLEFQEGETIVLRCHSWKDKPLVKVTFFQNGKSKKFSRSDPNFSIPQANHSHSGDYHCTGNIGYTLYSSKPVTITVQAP

Row | Fold [1] | Kd [1] [nM] | Fold (FcγRIIaR (human)) | Kd (FcγRIIaR (human)) [nM] | Substance
1 | 2.31 | 636 | – | – | A327D/L328Y/I332E (antibody)
2 | 0.353 | 4160 | 0.319 | 2690 | A327G (antibody)
3 | 0.011 | 134000 | 0.634 | 1350 | A327Q (antibody)
4 | 1.55 | 947 | – | – | A330K (antibody)
5 | 0.0635 | 23100 | – | – | A330S (antibody)
6 | 0.417 | 3520 | 0.307 | 2790 | D265E (antibody)
7 | 0.0578 | 25400 | – | – | G236A/G237A (antibody)
8 | 11.6 | 126 | – | – | G236D/H268D (antibody)
9 | 11.4 | 129 | 36.5 | 23.5 | G236E/S267E (antibody)
10 | 0.0147 | 100000 | 0.00859 | 100000 | G236F (antibody)
11 | – | – | 0.135 | 6350 | G236H (antibody)
12 | 0.0147 | 100000 | 0.00859 | 100000 | G236K (antibody)
13 | 0.147 | 10000 | 0.0859 | 10000 | G236M (antibody)
14 | 0.147 | 10000 | 0.0859 | 10000 | G236P (antibody)
15 | 0.147 | 10000 | 0.0859 | 10000 | G236Q (antibody)
16 | 0.0147 | 100000 | 0.00859 | 100000 | G236R (antibody)
17 | 0.0797 | 18400 | – | – | G236S/G237A (antibody)
18 | 0.0147 | 100000 | 0.106 | 8080 | G236V (antibody)
19 | 0.147 | 10000 | 0.0859 | 10000 | G236W (antibody)
20 | 0.0147 | 100000 | 0.00859 | 100000 | G237E (antibody)
21 | 0.0147 | 100000 | 0.00859 | 100000 | G237K (antibody)
22 | 0.0147 | 100000 | 0.00859 | 100000 | G237P (antibody)
23 | 0.147 | 10000 | 0.0859 | 10000 | G237Q (antibody)
24 | 0.147 | 10000 | 0.081 | 10600 | G237S (antibody)
25 | 0.147 | 10000 | 0.0342 | 25100 | G237V (antibody)
26 | 0.33 | 4450 | 0.902 | 952 | G237Y (antibody)

Row | Fold [1] | Kd [1] [nM] | Fold (FcγRIIaR (human)) | Kd (FcγRIIaR (human)) [nM] | Substance
27 | 7.68 | 191 | – | – | H268D/A327D (antibody)
28 | 3.49 | 420 | – | – | H268D/A327D/L328Y (antibody)
29 | 18.6 | 78.9 | – | – | H268D/K326D/L328Y (antibody)
30 | 12.3 | 119 | – | – | H268D/L328F/I332E (antibody)
31 | 39.8 | 36.9 | – | – | H268D/L328W/I332E (antibody)
32 | 1.91 | 767 | – | – | H268D/L328Y (antibody)
33 | 4.89 | 300 | – | – | H268D/L328Y/I332E (antibody)
34 | 8.53 | 172 | – | – | H268E/L328Y/I332E (antibody)
35 | 1.17 | 1250 | 1.79 | 481 | H268N (antibody)
36 | – | – | 1.58 | 544 | H268Q (antibody)
37 | 2.65 | 553 | – | – | K326D/L328Y/I332E (antibody)
38 | 6.09 | 241 | – | – | K326E (antibody)
39 | 3.04 | 483 | – | – | K326W (antibody)
40 | 5.11 | 287 | 0.728 | 1180 | L234D/G236N/S267E (antibody)
41 | 5.89 | 249 | – | – | L234E/H268D (antibody)
42 | 5.92 | 248 | – | – | L234W/H268D/L328Y (antibody)
43 | 6.32 | 232 | – | – | L234W/L328Y/I332E (antibody)
44 | 32.8 | 44.8 | – | – | L234W/S239D/L328Y (antibody)
45 | 4.11 | 357 | – | – | L235D/S239D (antibody)
46 | 3.97 | 370 | – | – | L235F/H268D/L328Y (antibody)
47 | 3.31 | 443 | – | – | L235F/L328Y/I332E (antibody)
48 | 6.82 | 215 | – | – | L235F/S239D/L328Y (antibody)
49 | – | – | 2.04 | 420 | L235Q (antibody)
50 | – | 37800 | – | – | L235S/S267E (antibody)
51 | 15.9 | 92.2 | – | – | L235Y/S267D (antibody)
52 | 2.08 | 705 | – | – | L328Y/I332E (antibody)

Row | Fold [1] | Kd [1] [nM] | Fold (FcγRIIaR (human)) | Kd (FcγRIIaR (human)) [nM] | Substance
53 | 0.0372 | 39400 | – | – | P331S (antibody)
54 | 11.9 | 123 | – | – | S239D/A327D/L328Y (antibody)
55 | 14.4 | 102 | – | – | S239D/H268D (antibody)
56 | 8.79 | 167 | – | – | S239D/H268D/L328F (antibody)
57 | 53.2 | 27.6 | – | – | S239D/H268D/L328F/I332E (antibody)
58 | 51.1 | 28.7 | – | – | S239D/H268D/L328W (antibody)
59 | 27.8 | 52.7 | – | – | S239D/H268D/L328W/I332E (antibody)
60 | 24.4 | 60.1 | – | – | S239D/H268D/L328Y (antibody)
61 | 54.1 | 27.1 | – | – | S239D/H268D/L328Y/I332E (antibody)
62 | 21.7 | 67.7 | – | – | S239D/H268E/L328Y (antibody)
63 | 13 | 113 | – | – | S239D/K326D/L328Y (antibody)
64 | 8.34 | 176 | – | – | S239D/L328F/I332E (antibody)
65 | 5.56 | 264 | – | – | S239D/L328Y (antibody)
66 | 7.41 | 198 | – | – | S239D/L328Y/I332E (antibody)
67 | 19.8 | 74.1 | – | – | S239D/S267A/L328Y (antibody)
68 | 22.3 | 65.9 | – | – | S239D/S267D (antibody)
69 | 124 | 11.8 | – | – | S239D/S267E/I332E (antibody)
70 | 10.7 | 137 | – | – | S267A/H268D/L328Y (antibody)
71 | 13.5 | 109 | – | – | S267A/L328Y/I332E (antibody)
72 | 6.89 | 213 | – | – | S267D/A327D (antibody)
73 | 12.1 | 121 | – | – | S267D/A327E (antibody)
74 | 14.2 | 103 | – | – | S267D/H268D (antibody)
75 | 17.8 | 82.6 | – | – | S267D/H268E (antibody)
76 | 33.3 | 44 | – | – | S267E/H268D (antibody)
77 | 12.1 | 121 | – | – | S267E/L328Q (antibody)
